{"source": "paper PMC9650030", "about": "“The RNA repair proteins RtcAB regulate transcription activator RtcR via its CRISPR-associated Rossmann fold domain” (iScience, 2022)", "key": {"[1]": {"target": "MBP-RtcR (wild-type, full-length RtcR N-terminally tagged with maltose binding protein) (Escherichia coli) (UniProt P38035)", "experiment": "MST; RED-NHS-labelled MBP-RtcRWT or RtcR_(ΔCARF) (diluted to 50 nM, mixed with an equal volume) against a serial dilution of RtcA or RtcB; 24°C; modified PBS (250 mM NaCl) with 0.05% Tween-20; fitted with the Hill equation"}, "[2]": {"target": "T1, MBP-RtcR (wild-type, full-length RtcR N-terminally tagged with maltose binding protein) (Escherichia coli, UniProt P38035 1-532, labelled with Monolith RED-NHS 2nd Generation dye (amine reactive) in the MST experiments only)", "T1 construct": "also called RtcRWT; MBP-RtcRWT; not shown: MBP, N-terminal, kept", "T1 sequence (looked up)": "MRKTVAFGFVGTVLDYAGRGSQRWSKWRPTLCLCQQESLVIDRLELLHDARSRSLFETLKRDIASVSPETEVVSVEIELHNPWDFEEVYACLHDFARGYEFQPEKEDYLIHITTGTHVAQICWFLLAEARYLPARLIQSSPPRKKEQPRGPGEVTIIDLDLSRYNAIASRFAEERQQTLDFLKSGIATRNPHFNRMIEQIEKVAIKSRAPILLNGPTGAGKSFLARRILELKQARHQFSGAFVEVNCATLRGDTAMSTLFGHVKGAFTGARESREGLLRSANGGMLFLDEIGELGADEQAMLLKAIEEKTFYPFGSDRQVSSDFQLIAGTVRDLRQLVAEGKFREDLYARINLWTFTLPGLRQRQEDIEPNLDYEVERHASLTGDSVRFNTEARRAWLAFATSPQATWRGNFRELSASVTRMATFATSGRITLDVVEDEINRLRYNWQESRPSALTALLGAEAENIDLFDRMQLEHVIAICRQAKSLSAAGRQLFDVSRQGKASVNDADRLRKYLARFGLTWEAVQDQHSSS", "experiment": "MST; RED-NHS-labelled MBP-RtcRWT or RtcR_(ΔCARF) (diluted to 50 nM, mixed with an equal volume) against a serial dilution of RtcA or RtcB; 24°C; modified PBS (250 mM NaCl) with 0.05% Tween-20; fitted with the Hill equation", "settings": "both partners purified"}}, "data": [{"molecule": "His-RtcB (N-terminal his-tagged RNA ligase RtcB) (from UniProt P46850 1-408) (enzyme)", "values": [{"measurement": "Kd", "setting": "[1]", "value": 14.5, "unit": "µM"}]}, {"molecule": "His-RtcA (N-terminal his-tagged RNA 3'-terminal phosphate cyclase RtcA) (enzyme, Escherichia coli, UniProt P46849 1-338, looked up, RtcA, RNA 3'-terminal phosphate cyclase, Escherichia coli; not shown: His tag, N-terminal, kept) MKRMIALDGAQGEGGGQILRSALSLSMITGQPFTITSIRAGRAKPGLLRQHLTAVKAATEICGATVEGAELGSQRLLFRPGTVRGGDYRFAIGSAGSCTLVLQTVLPALWFADGPSRVEVSGGTDNPSAPPADFIRRVLEPLLAKIGIHQQTTLLRHGFYPAGGGVVATEVSPVASFNTLQLGERGNIVQMRGEVLLAGVPRHVAEREIATLAGSFSLHEQNIHNLPRDQGPGNTVSLEVESENITERFFVVGEKRVSAEVVAAQLVKEVKRYLASTAAVGEYLADQLVLPMALAGAGEFTVAHPSCHLLTNIAVVERFLPVRFSLIETDGVTRVSIE", "values": [{"measurement": "Kd", "setting": "[2]", "value": "~5", "unit": "µM"}]}]}
